Laboratory results reported in patent US12338268B2, “Compositions and methods for treating protein aggregation-associated diseases” (The Board of Trustees of the Leland Stanford Junior …, priority 2019, dated 2025).

Assays:
[1] = biological target: T1, mutant Huntingtin exon 1 (mHttQ51) (Homo sapiens, UniProt P42858, INS38QQQQQQQQQQQQQQQQQQQQQQQQQQQQQQQ); assay: In vitro filter trap aggregation assay of mutant Huntingtin exon 1; type: biochemical; conditions: for mHttQ51 aggregation: 5× molar excess, 3 μM mHttQ51, filter trap, SDS-insoluble aggregates
T1 construct: mutant Huntingtin exon 1 containing a pathogenic stretch of 51 glutamines (mHttQ51); GST (N, cleaved yes); made in house; host or cells: E. coli Rosetta 2(DE3) pLysS
T1 sequence (P42858 with tags, fused parts or gaps with the stated changes limits assumed): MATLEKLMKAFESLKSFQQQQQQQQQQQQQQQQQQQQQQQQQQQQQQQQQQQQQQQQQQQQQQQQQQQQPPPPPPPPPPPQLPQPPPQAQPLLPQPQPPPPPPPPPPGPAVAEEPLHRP
Description: (§1) Mutant Huntingtin and PolyQ51 aggregation reactions were performed at concentration 3 μM of mHttQ51, 0.044 Units/μl acTEV protease (Invitrogen, Carlsbad, CA, USA), and respective concentrations of Ovalbumin (Sigma) or purified NAC chaperone variants. Aggregation was conducted in TEV reaction buffer (Invitrogen) and incubated at 30° C. AtxQ78 was buffer exchanged into TEV reaction buffer using 7K MWCO Zeba Spin Desalting Columns (Thermo Fisher) to initiate aggregation. AtxQ78 aggregation reactions were performed at 30 μM of Ataxin-3 in reaction buffer (20 mM sodium phosphate pH 7.5, 25 mM NaCl, 6 mM MgCl2, 2 mM DTT, 5% (v/v) glycerol) and incubated at 37° C. Samples at varied time-points were then taken and combined in a 1:1 ratio with a 4% (w/v) SDS, 100 mM DTT solution, boiled for 5 min at 95° C., and stored at −20° C. Samples were then filtered through a 0.22 μm cellulose acetate membrane (Whatman) and washed with 0.1% (w/v) SDS. Membrane was probed using an S-tag antibody (Abcam) for mHttQ51 and PolyQ51, and with a His-tag antibody (Abcam) for AtxQ78.

[2] = biological target: T2, full-length Ataxin-3 (AtxQ78) (Homo sapiens, UniProt P54252, INS305QQQQQQQQQQQQQQQQQQQQQQQQQQQQQQQQQQQQQQQQQQQQQQQQQQQQQQQQQQQQQQQQ); assay: Filter trap aggregation assay of AtxQ78; type: biochemical; conditions: equimolar (1×) NAC, 37° C.
T2 construct: full-length Ataxin-3 harboring a stretch of 78 glutamines (AtxQ78); made in house
T2 sequence (P54252 with tags, fused parts or gaps with the stated changes): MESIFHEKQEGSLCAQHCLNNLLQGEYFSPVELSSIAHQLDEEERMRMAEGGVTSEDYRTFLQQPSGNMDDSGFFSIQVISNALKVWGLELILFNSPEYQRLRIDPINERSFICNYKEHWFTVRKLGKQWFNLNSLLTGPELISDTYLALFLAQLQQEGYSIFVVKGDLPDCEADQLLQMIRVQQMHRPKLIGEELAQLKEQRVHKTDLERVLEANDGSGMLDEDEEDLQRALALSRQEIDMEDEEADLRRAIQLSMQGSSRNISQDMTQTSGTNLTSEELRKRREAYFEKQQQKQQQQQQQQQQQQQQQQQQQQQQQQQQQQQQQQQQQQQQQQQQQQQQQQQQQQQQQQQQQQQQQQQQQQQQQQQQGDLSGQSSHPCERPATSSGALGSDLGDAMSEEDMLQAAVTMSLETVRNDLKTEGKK
Description: as §1

[3] = tested on: PolyQ35::YFP C. elegans worms; assay: Paralysis assay; type: in vivo; conditions: overexpression; day 6 to 10 of adulthood
Description: To analyze the percentage of paralyzed worms, 100 semi-synchronized (timed egg lay for 5 h) young adult worms of each strain were placed on a plate containing 150 μM 5-fluorodeoxyuridine. Screening of paralyzed worms was started at day 6 of adulthood.

[4] = tested on: PolyQ35::YFP; assay: PolyQ35::YFP aggregation in C. elegans overexpressing NAC (fluorescence microscopy, SDD-AGE); type: in vivo; conditions: overexpressed in body wall muscle cells (myo-3 promoter), day 3 of adulthood, fluorescence microscopy
From the text: NAC is a major ribosome-binding factor interacting broadly with nascent chains (del Alamo et al., 2011). However, its assumed chaperone function is poorly investigated. […] Although loss of NAC causes pleiotropic defects in C. elegans (Gamerdinger et al., 2015), this finding raises the possibility that NAC directly exerts a chaperone function on aggregation-prone proteins. In this case, overexpression of NAC should prevent aggregation of PolyQ proteins in vivo. Therefore, we used a C. elegans strain expressing 35 consecutive glutamine residues fused to YFP (PolyQ35::YFP) in body wall muscle cells. This PolyQ length is close to the aggregation threshold in C. elegans muscle cells, leading to progressive, age-dependent aggregation starting at day 2 of adulthood (Morley et al., 2002). We generated transgenic animals that overexpress FLAG-tagged α- and βNAC under the control of the muscle-specific myo-3 promoter. PolyQ aggregation was assessed at day 3 of adulthood by fluorescence microscopy as well as semi-denaturing detergent agarose gel electrophoresis (SDD-AGE), which detects high molecular weight oligomeric PolyQ species (Halfmann and Lindquist, 2008). […] This is evident by magnification of the head regions showing diffuse PolyQ35::YFP and less punctate PolyQ35::YFP structures when NAC was overexpressed (FIG. 1A, head region images). […] To directly test the potential chaperone function of NAC, we employed a peptide composed of 51 consecutive glutamines (PolyQ51) as a model substrate in a well-established in vitro aggregation assay. We initiated aggregation of PolyQ51 by cleaving a solubilizing GST tag with TEV protease and detected aggregates over time using a filter trap assay.
Worms were cultured according to standard techniques with E. coli OP50 as food source (Brenner, 1974). Transgenic strains were generated using standard microinjection protocols (Mello and Fire, 1995). […]

[5] = biological target: T3, Aβ40 (Homo sapiens, UniProt P05067); assay: Thioflavin T fluorescence assay of Aβ40 aggregation; type: biochemical; conditions: equimolar NAC variant and Aβ40 (32 μM FIG. 4C; 18 μM FIG. 12C), 37° C., 20 h
T3 construct: Aβ40 peptide was expressed and purified as described previously; made in house; host or cells: E. coli BL21 (DE3)
Description: Lyophilized Aβ40 was resuspended at 320 μM in 20 mM sodium phosphate pH 7.4, 0.2 mM EDTA, 0.01% (w/v) sodium azide and stored on ice. The NAC proteins were diluted to 100 μM in storage buffer (20 mM sodium phosphate pH 7.5, 25 mM NaCl, 6 mM MgCl2, 2 mM β-mercaptoethanol, 5% (v/v) glycerol) and buffer exchanged into 20 mM sodium phosphate pH 7.4, 0.2 mM EDTA, 0.01% (w/v) sodium azide, 1× complete mini protease inhibitor, EDTA free (Roche) by means of ZebaSpin 7 kDa MWCO spin columns (Thermo Scientific). Samples were prepared that contained equimolar concentrations of Aβ40 and NAC variants. Thioflavin T was added to a final concentration of 10 μM. The samples were transferred to a 96 well half-area clear bottom microplate (Corning GmbH, Wiesbaden, Germany), with 95 μL of sample in each well. The fluorescence (excitation: 440 nm, emission: 480 nm) was measured using a BMG Omega plate reader (BMG Labtech) incubating samples at 37° C., quiescently.

B1: ApiCCT1: the 140 amino acid apical domain of CCT1 (protein)
chain: MVPGYALNCTVASQAMPKRIAGGNVKIACLDLNLQKARMAMGVQINIDDPEQLEQIRKREAGIVLERVKKIIDAGAQVVLTTKGIDDLCLKEFVEAKIMGVRRCKKEDLRRIARATGATLVSSMSNLEGEETFESSYLGLCDEVVQAKFSDDECILIKGTSKAAAAALEHHHHHH
For B1, the “polyQ aggregation of huntingtin exon1” value ([1]; system with purified components) was “specifically and efficiently inhibits polyQ aggregation of huntingtin exon1”.

B2: C. elegans NAC: purified recombinant C. elegans nascent polypeptide-associated complex (protein)
chain 1: MTGSTETRQKEVKEPQVDVSDDSDNEAVEQELTEEQRRVAEAAGLGDHIDKQAKQSRSEKKARKLFSKLGLKQVTGVSRVCIRKSKNILFVINKPDVFKSPGSDTYIIFGEAKIEDLTQHAQMSAIENLKPTREAPQLKTVEEDENEDVEEDSTGIEEKDIELVISQANTTRNKAIRALKEADNDIVNAIMSLTM
chain 2: MDSKAIAERIKKLQAQQEHVRIGGKGTPRRKKKVIHKTAAADDKKLQSNLKKLSVTNIPGIEEVNMIKDDGTVIHFNNPKVQTSVPANTFSVTGSADNKQITEMLPGILNQLGPESLTHLKKLANNVTKLGPDGKGEDEDVPELVGDFDAASKNETKADEQ
With B2 the AtxQ78 aggregation [2] was “prevented AtxQ78 aggregation but was slightly less effective than the human isoform” and the mHttQ51 aggregation [1] was “to a lesser extent”.

B3: RRK/AAA-NAC: NAC with mutation in the conserved ribosome-binding motif in the N-terminus of βNAC; ribosome-binding deficient (protein)
chain 1: MTGSTETRQKEVKEPQVDVSDDSDNEAVEQELTEEQRRVAEAAGLGDHIDKQAKQSRSEKKARKLFSKLGLKQVTGVSRVCIRKSKNILFVINKPDVFKSPGSDTYIIFGEAKIEDLTQHAQMSAIENLKPTREAPQLKTVEEDENEDVEEDSTGIEEKDIELVISQANTTRNKAIRALKEADNDIVNAIMSLTM
chain 2: MDSKAIAERIKKLQAQQEHVRIGGKGTPAAAKKVIHKTAAADDKKLQSNLKKLSVTNIPGIEEVNMIKDDGTVIHFNNPKVQTSVPANTFSVTGSADNKQITEMLPGILNQLGPESLTHLKKLANNVTKLGPDGKGEDEDVPELVGDFDAASKNETKADEQ
B3 was tested, and the “motility / age-associated paralysis of PolyQ35::YFP-expressing worms” value [3] was “still improved motility during aging albeit less effective than WT-NAC”, the mHttQ51 aggregation [1] was “delayed mHttQ51 aggregation similar to wild-type NAC” and the “PolyQ35::YFP aggregation” value [4] was “suppressed PolyQ35::YFP aggregation similarly to WT-NAC”. For the same molecule, the “Aβ40 aggregation (ThT fluorescence)” value [5] was “fully suppressed Aβ40 aggregation”.

B4: ovalbumin: molar equivalent ovalbumin control protein (Sigma) (protein, UniProt P01012 2-386, looked up)
Ovalbumin: GSIGAASMEFCFDVFKELKVHHANENIFYCPIAIMSALAMVYLGAKDSTRTQINKVVRFDKLPGFGDSIEAQCGTSVNVHSSLRDILNQITKPNDVYSFSLASRLYAEERYPILPEYLQCVKELYRGGLEPINFQTAADQARELINSWVESQTNGIIRNVLQPSSVDSQTAMVLVNAIVFKGLWEKAFKDEDTQAMPFRVTEQESKPVQMMYQIGLFRVASMASEKMKILELPFASGTMSMLVLLPDEVSGLEQLESIINFEKLTEWTSSNVMEERKIKVYLPRMKMEEKYNLTSVLMAMGITDVFSSSANLSGISSAESLKISQAVHAAHAEINEAGREVVGSAEAGVDAASVSEEFRADHPFLFCIKHIATNAVLFFGRCVSP
B4 was tested, and the mHttQ51 aggregation [1] was “little effect”.
